In PMC11479944 one finds recovery from desensitization, patch-clamp recordings of GluA2 expressed in HEK293 cells, switching from pH 7.4 to pH 5.5 (pH 6.4 also tested) and stoichiometry N data, which are given here for two substances.

For test [1], the target named is rat GluA2flip(Q) isoform, tagged with a FLAG epitope near its C terminus (rat).
The target of test [2] is GluA2 N-terminal domain (isolated GluA2 NTD) (rat). Nature of the test: SEC-MALS; GluA2 NTD injected at 13 mg/mL and 1 mg/mL (legend; the text says 1-2 mg ml^-1), 100 µl samples, Superdex S200 10/300, 10 mM HEPES, 150 mM KCl, pH 7.5; only dimers seen, no step from dimers to tetramer. (In general: In gel filtration, larger molecules generally elute earlier.)

For “rat GluA2flip(Q) isoform, tagged with a FLAG epitope near its C terminus (receptor)”, the recovery from desensitization, patch-clamp recordings of GluA2 expressed in HEK293 cells, switching from pH 7.4 to pH 5.5 (pH 6.4 also tested) in test [1] worked out at 2 fold.
In the case of “GluA2 N-terminal domain (isolated GluA2 NTD) (domain or fragment)”, the stoichiometry N in test [2] was found to be 2.

Broadly, the stoichiometry N is the number of molecules, sites or subunits per partner or assembly.
